Measurements as given in paper PMC6736649.

What was measured:
Test in all cases: ITC
FEZ1_(178–188) (human) = molecular target: FEZ1_(178–188) (human)
[1] = molecular target: FEZ1_(92–198 182EA) (human) (UniProt Q99689)
FEZ1_(92–198) (human) = FEZ1_(92–198) (human) (UniProt Q99689)

Question: With “Disulfide-crosslinked CA (A14C/E45C) hexamer (complex)” as the substance, how does the Kd (FEZ1_(178–188) (human)) read?
Answer: 0.18 µM

Question: What about the stoichiometry N (CA hexamer to FEZ1 (178–188)) (FEZ1_(178–188) (human)) of the same substance?
Answer: 1

Question: And the stoichiometry N (CA hexamer to FEZ1) [1]?
Answer: 1.6

Question: What about the Kd (FEZ1_(92–198) (human)) of the same substance?
Answer: 0.3 µM

Question: What about the stoichiometry N (CA hexamer to FEZ1) (FEZ1_(92–198) (human)) of the same substance?
Answer: 1.3
